Results taken from PMC9486808.
Read-outs that look alike come from different tables or passages of the source.

What was measured:
Assay in all cases: fluorescence polarisation
[1] = biological target: L2-FAM: Cyclo(Ac-…)LFAApa[…]-NH2
[2] = biological target: L4-FAM: Cyclo(Ac-…)pa[…]-NH2
[3] = biological target: S3-FAM: Cyclo(Ac-y…)pa[…]-NH2
[4] = biological target: S5-FAM: Cyclo(Ac-y…)pa[…]-NH2
[5] = biological target: L4-FAM: Cyclo(Ac-…)pa[…]-NH2; remark: listed apart in the source
[6] = biological target: S3-FAM: Cyclo(Ac-y…)pa[…]-NH2; remark: listed apart in the source
[7] = biological target: S5-FAM: Cyclo(Ac-y…)pa[…]-NH2; remark: listed apart in the source

Substance: Recombinant soluble trimeric H1 HA ectodomain of A/California/04/2009 (H1N1), fused to GCN4 trimeriz (domain or fragment)
- Kd [1]: 2.4 nM
- Kd [2]: 1.1 nM
- Kd [3]: 1.3 nM
- Kd [4]: 1 nM
- Kd [5]: 0.6 nM
- Kd [6]: 0.8 nM
- Kd [7]: 0.6 nM
